The data set deals with the molecule itself. Briefly: bead aggregation assay.

B1: hs PCDH24 EC1-MAD10Fc (Fc fusion)
chain: NVAPKFLANMTSVILPEDLPVGAQAFWLVAEDQDNDPLTYGMSGPNAYFFAVTPKTGEVKLASALDYETLYTFKVTISVSDPYIQVQREMLVIVEDRNDNAPVFQNTAFSTSINETLPVGSVVFSVLAVDKDMGSAGMVVYSIEKVIPSTGDSEHLFRILANGSIVLNGSLSYNNKSAFYQLELKACDLGGMYHNTFTIQCSLPVFLSISVVDQPDLDPQFVREFYSASVAEDAAKGTSVLTVEAVDGDKGINDPVIYSISYSTRPGWFDIGADGVIRVNGSLDREQLLEADEEVQLQVTATETHLNIYGQEAKVSIWVTVRVMDVNDHKPEFYNCSLPACTFTPEEAQVNFTGYVDEHASPRIPIDDLTMVVYDPDKGSNGTFLLSLGGPDAEAFSVSPERAVGSASVQVLVRVSALVDYERQTAMAVQVVATDSVSQNFSVAMVTIHLRDINDHRPTFPQSLYVLTVPEHSATGSVVTDSIHATDPDTGAWGQITYSLLPGNGADLFQVDPVSGTVTVRNGELLDRESQAVYYLTLQATDGGNLSSSTTLQIHLLDINDNAPVVSGSYNIFVQEEEGNVSVTIQAHDNDEPGTNNSRLLFNLLPGPYSHNFSLDPDTGLLRNLGPLDREAIDPALEGRIVLTVLVSDCGEPVLGTKVNVTITVEDINDNLPIFNQSSYNFTVKEEDPGVLVGVVKAWDADQTEANNRISFSLSGSGANYFMIRGLVLGAGWAEGYLRLPPDVSLDYETQPVFNLTVSAENPDPQGGETIVDVCVNVKDVNDNPPTLDVASLRGIRVAENGSQHGQVAVVVASDVDTSAQLEIQLVNILCTKAGVDVGSLCWGWFSVAANGSVYINQSKAIDYEACDLVTLVVRACDLATDPGFQAYSNNGSLLITIEDVNDNAPYFLPENKTFVIIPELVLPNREVASVRARDDDSGNNGVILFSILRVDFISKDGATIPFQGVFSIFTSSEADVFAGSIQPVTSLDSTLQGTYQVTVQARDRPSLGPFLEATTTLNLFTVDQSYRSRLQFSTPKEEVGANRQAINAALTQATRTTVYIVDIQDIDSAARARPHSYLDAYFVFPNGSALTLDELSVMIRNDQDSLTQLLQLGLVVLGSQESQESDLSKQLIS
Turning to B1, the binding result is listed as “binds”.

These data come from paper doi:10.1101/2020.09.01.278846 (bioRxiv, 2020).
